target: HLA-A*02:01 (Homo sapiens, UniProt P04439, D140Y/D185E/D98H/E176V/E277Q/G131W/G231S/I119V/I121R/I166T/I218V/L300P/L318F/N151K/N90K/P208A/P217A/Q86G/Q94H/R138H/R169H/T345S); assay: MHC binding assay (UV-ligand exchange, beta2m ELISA, peptide exchange yield); settings: binding of HLA-class I restricted peptides to HLA-A*02:01, ranged by peptide exchange yield (UV-ligand exchange, β2m ELISA)
How it was run: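 Readout is a β2m ELISA: stabilized complexes captured on streptavidin, detected with HRP-conjugated anti-β2m and TMB at 450 nm, reporting peptide exchange yield. Complexes come from UV-light cleavage of a conditional ligand in HLA-A*02:01 and replacement by the candidate peptide, samples diluted 100-fold.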

Row | Substance | Peptide exchange
1 | 381 (FIDEAYVEV; listed as Homo sapiens) [compound 381] | ″++″ (≥20% = ++)
2 | 449 (KLAEGLDIQL; listed as Homo sapiens) [compound 449] | ″+++″ (≥50% = +++)
3 | 311 (RLYTGMHTV; listed as Homo sapiens) [compound 311] | ″+++″ (≥50% = +++)
4 | 162 (YQQAQVPSV; listed as Homo sapiens) [compound 162] | ″+++″ (≥50% = +++)
5 | 571 (LLLTTIPQI; listed as Homo sapiens) [compound 571] | ″+++″ (≥50% = +++)
6 | 87 (ALPEAPAPLLPHIT; listed as Homo sapiens) [compound 87] | ″++″ (≥20% = ++)
7 | 548 (ALWENPESGEL; listed as Homo sapiens) [compound 548] | ″++″ (≥20% = ++)
8 | 477 (ALLPASGQIAL; listed as Homo sapiens) [compound 477] | ″+++″ (≥50% = +++)
9 | 333 (FLPDANSSV; listed as Homo sapiens) [compound 333] | ″++″ (≥20% = ++)
10 | 202 (ALLDQQGSRWTL; listed as Homo sapiens) [compound 202] | ″+++″ (≥50% = +++)
11 | 144 (YIMEPSIFNTL; listed as Homo sapiens) [compound 144] | ″+++″ (≥50% = +++)
12 | 320 (KMFEFVEPLL; listed as Homo sapiens) [compound 320] | ″++++″ (≥75% = ++++)
13 | 513 (SLWPSPEQL; listed as Homo sapiens) [compound 513] | ″++″ (≥20% = ++)
14 | 554 (LLMPSSEDLLL; listed as Homo sapiens) [compound 554] | ″+++″ (≥50% = +++)
15 | 586 (KLKPGDLVGV; listed as Homo sapiens) [compound 586] | ″+++″ (≥50% = +++)
16 | 286 (YLFPGIPEL; listed as Homo sapiens) [compound 286] | ″+++″ (≥50% = +++)
17 | 85 (KMSELRVTL; listed as Homo sapiens) [compound 85] | ″+++″ (≥50% = +++)
18 | 142 (FLFATPVFI; listed as Homo sapiens) [compound 142] | ″+++″ (≥50% = +++)
19 | 315 (YLQDVVEQA; listed as Homo sapiens) [compound 315] | ″+++″ (≥50% = +++)
20 | 282 (LLADVVPTT; listed as Homo sapiens) [compound 282] | ″+++″ (≥50% = +++)
21 | 358 (ALDEYTSEL; listed as Homo sapiens) [compound 358] | ″++++″ (≥75% = ++++)
22 | 496 (FLVEKQPPQV; listed as Homo sapiens) [compound 496] | ″+++″ (≥50% = +++)
23 | 161 (ALLEGVNTV; listed as Homo sapiens) [compound 161] | ″+++″ (≥50% = +++)
24 | 455 (SLLKEPQKVQL; listed as Homo sapiens) [compound 455] | ″++″ (≥20% = ++)
25 | 278 (QLLDVVLTI; listed as Homo sapiens) [compound 278] | ″++″ (≥20% = ++)
26 | 124 (ALYETELADA; listed as Homo sapiens) [compound 124] | ″++″ (≥20% = ++)

Row | Substance | Peptide exchange
27 | 504 (GLSDGNPSL; listed as Homo sapiens) [compound 504] | ″++″ (≥20% = ++)
28 | 267 (ALQDFLLSV; listed as Homo sapiens) [compound 267] | ″+++″ (≥50% = +++)
29 | 354 (LILEGVDTV; listed as Homo sapiens) [compound 354] | ″++″ (≥20% = ++)
30 | 517 (LLMPIPEGLTL; listed as Homo sapiens) [compound 517] | ″+++″ (≥50% = +++)
31 | 369 (GLFPEHLIDV; listed as Homo sapiens) [compound 369] | ″+++″ (≥50% = +++)
32 | 139 (SVMEVNSGIYRV; listed as Homo sapiens) [compound 139] | ″+++″ (≥50% = +++)
33 | 20 (RMIEYFIDV; listed as Homo sapiens) [compound 20] | ″+++″ (≥50% = +++)
34 | 252 (LLIGTDVSL; listed as Homo sapiens) [compound 252] | ″+++″ (≥50% = +++)
35 | 471 (YLYNNMIAKI; listed as Homo sapiens) [compound 471] | ″+++″ (≥50% = +++)
36 | 69 (FQLDPSSGVLVTV; listed as Homo sapiens) [compound 69] | ″+++″ (≥50% = +++)
37 | 367 (SLQNHNHQL; listed as Homo sapiens) [compound 367] | ″+++″ (≥50% = +++)
38 | 138 (YQYPRAILSV; listed as Homo sapiens) [compound 138] | ″+++″ (≥50% = +++)
39 | 343 (SLLEVNEESTV; listed as Homo sapiens) [compound 343] | ″+++″ (≥50% = +++)
40 | 234 (ALMEDTGRQML; listed as Homo sapiens) [compound 234] | ″++″ (≥20% = ++)
41 | 612 (YLYNEGLSV; listed as Homo sapiens) [compound 612] | ″+++″ (≥50% = +++)
42 | 269 (RVLEVGALQAV; listed as Homo sapiens) [compound 269] | ″++″ (≥20% = ++)
43 | 102 (YLFESEGLVL; listed as Homo sapiens) [compound 102] | ″+++″ (≥50% = +++)
44 | 24 (SLSDGLEEV; listed as Homo sapiens) [compound 24] | ″++″ (≥20% = ++)
45 | 90 (TLLQIIETV; listed as Homo sapiens) [compound 90] | ″+++″ (≥50% = +++)
46 | 485 (NVPDSFNEV; listed as Homo sapiens) [compound 485] | ″+++″ (≥50% = +++)
47 | 98 (LIIDQADIYL; listed as Homo sapiens) [compound 98] | ″+++″ (≥50% = +++)
48 | 597 (KLLEGQVIQL; listed as Homo sapiens) [compound 597] | ″+++″ (≥50% = +++)
49 | 580 (LLMENAERV; listed as Homo sapiens) [compound 580] | ″++″ (≥20% = ++)
50 | 546 (VMIAGKVAVV; listed as Homo sapiens) [compound 546] | ″+++″ (≥50% = +++)
51 | 197 (ALGPEGGRV; listed as Homo sapiens) [compound 197] | ″++″ (≥20% = ++)
52 | 574 (YLLQEPPRTV; listed as Homo sapiens) [compound 574] | ″++″ (≥20% = ++)

Row | Substance | Peptide exchange
53 | 191 (LLQEGQALEYV; listed as Homo sapiens) [compound 191] | ″++″ (≥20% = ++)
54 | 440 (ALADGVTMQV; listed as Homo sapiens) [compound 440] | ″++″ (≥20% = ++)
55 | 576 (ILLNNSGQIKL; listed as Homo sapiens) [compound 576] | ″++++″ (≥75% = ++++)
56 | 563 (WLLPYNGVTV; listed as Homo sapiens) [compound 563] | ″+++″ (≥50% = +++)
57 | 220 (LLQKFVPEI; listed as Homo sapiens) [compound 220] | ″++″ (≥20% = ++)
58 | 378 (ALGYFVPYV; listed as Homo sapiens) [compound 378] | ″+++″ (≥50% = +++)
59 | 539 (ALFDAQAQV; listed as Homo sapiens) [compound 539] | ″+++″ (≥50% = +++)
60 | 229 (RLPGPLGTV; listed as Homo sapiens) [compound 229] | ″++″ (≥20% = ++)
61 | 122 (FLLAEDDIYL; listed as Homo sapiens) [compound 122] | ″+++″ (≥50% = +++)
62 | 448 (NLLETKLQL; listed as Homo sapiens) [compound 448] | ″+++″ (≥50% = +++)
63 | 468 (YLRSVGDGETV; listed as Homo sapiens) [compound 468] | ″+++″ (≥50% = +++)
64 | 462 (KLAKQPETV; listed as Homo sapiens) [compound 462] | ″+++″ (≥50% = +++)
65 | 7 (SLVGLLLYL; listed as Homo sapiens) [compound 7] | ″++++″ (≥75% = ++++)
66 | 606 (ALWETEVYI; listed as Homo sapiens) [compound 606] | ″+++″ (≥50% = +++)
67 | 30 (LILDWVPYI; listed as Homo sapiens) [compound 30] | ″+++″ (≥50% = +++)
68 | 567 (SLLPLDDIVRV; listed as Homo sapiens) [compound 567] | ″+++″ (≥50% = +++)
69 | 570 (ALANQIPTV; listed as Homo sapiens) [compound 570] | ″++″ (≥20% = ++)
70 | 206 (VLQEGKLQKLAQL; listed as Homo sapiens) [compound 206] | ″+++″ (≥50% = +++)
71 | 509 (FLFDTKPLIV; listed as Homo sapiens) [compound 509] | ″+++″ (≥50% = +++)
72 | 316 (ILLERLWYV; listed as Homo sapiens) [compound 316] | ″+++″ (≥50% = +++)
73 | 99 (ALVSKGLATV; listed as Homo sapiens) [compound 99] | ″++″ (≥20% = ++)
74 | 557 (KLYDDMIRL; listed as Homo sapiens) [compound 557] | ″+++″ (≥50% = +++)
75 | 34 (ILVEADSLWVV; listed as Homo sapiens) [compound 34] | ″+++″ (≥50% = +++)
76 | 50 (SLSELEALM; listed as Homo sapiens) [compound 50] | ″+++″ (≥50% = +++)
77 | 475 (LLLNEEALAQI; listed as Homo sapiens) [compound 475] | ″+++″ (≥50% = +++)
